The target in test [1] is engineered MATH domain of SPOP (Speckle-type POZ protein), residues 1-182, cysteine residues substituted to serine (UniProt O43791). The test is described as follows: stopped-flow fluorescence binding kinetics; pseudo-first-order; 2 µM MATH mixed with dansylated peptide, 2 to 10 µM Puc and MacroH2A, 2 to 40 µM PTEN; excitation 280 nm; 298 K; kobs against peptide concentration fitted to a line, kon from the slope.

The target is the same in test [2]. The experiment in a line: other fluorescence titration; equilibrium; FRET from the tryptophans of SPOP MATH (excited at 280 nm, emission 300-400 nm) to the dansyl of the peptide; MATH at constant concentration (2 µM in the methods, 1 µM in the results), dansylated peptide 0 to 40 µM; 298 K; hyperbolic fit.
For test [3] the target is unchanged. The test is described as follows: stopped-flow fluorescence displacement; preincubated complex of MATH domain and dansylated peptide (both 8 µM) mixed with an excess of nondansylated peptide (50 µM); 298 K; same buffer as the binding experiments; single exponential decay gives koff.
Test [4] has the same target. The test is described as follows: stopped-flow fluorescence binding kinetics + other: stopped-flow fluorescence displacement; KD calculated by combining kon of the pseudo-first-order plots with koff of the displacement experiments; 298 K.
Substrate in test [5]: SPOP MATH F134A (UniProt O43791)
The experiment in a line: stopped-flow fluorescence binding kinetics; pseudo-first-order; 2 µM MATH mixed with dansylated peptide, 2 to 10 µM Puc and MacroH2A, 2 to 40 µM PTEN; excitation 280 nm; 298 K; kobs against peptide concentration fitted to a line, kon from the slope.

Substrate in test [6]: SPOP MATH K135A (UniProt O43791)
Described as above.

Substrate in test [7]: SPOP MATH Y124A (UniProt O43791)
Described as above.

Substrate in test [8]: SPOP MATH Y88A (UniProt O43791)
The description is as above.

Substrate in test [9]: SPOP MATH R71A (UniProt O43791)
Described as above.

Substrate in test [10]: SPOP MATH K130A (UniProt O43791)
The description is as above.

Substrate in test [11]: SPOP MATH D131A (UniProt O43791)
The description is as above.

Substrate in test [12]: SPOP MATH F134A (UniProt O43791)
The experiment in a line: stopped-flow fluorescence displacement; preincubated complex of MATH domain and dansylated peptide (both 8 µM) mixed with an excess of nondansylated peptide (50 µM); 298 K; same buffer as the binding experiments; single exponential decay gives koff.

Substrate in test [13]: SPOP MATH K135A (UniProt O43791)
The description is as above.

Substrate in test [14]: SPOP MATH Y124A (UniProt O43791)
Described as above.

Substrate in test [15]: SPOP MATH Y88A (UniProt O43791)
Described as above.

Substrate in test [16]: SPOP MATH R71A (UniProt O43791)
Described as above.

Substrate in test [17]: SPOP MATH K130A (UniProt O43791)
The test is described as above.

Substrate in test [18]: SPOP MATH D131A (UniProt O43791)
The test is described as above.

Where no end group is shown, it is not given here. The star is where a group is joined. Dansyl = CN(C)c1cccc2c(S(=O)(=O)*)cccc12

The values below come from publication PMC10298926, “Biophysical Characterization of the Binding Mechanism between the MATH Domain of SPOP and Its Physiological Partners” (International Journal of Molecular Sciences, 2023).

One may read the kon as the rate constant with which the complex forms. What is called Kd is the free concentration of one partner at which half of the binding sites on the other are occupied at equilibrium, for simple one-to-one binding. A word on the koff: it is the first-order rate constant of dissociation.

Dansyl-DEVTSTTSSS [dansylated peptide mimicking Puc (region 96-105)]: the association rate constant (kon) is 1.9e+07 M⁻¹ s⁻¹ in test [1]; 9.4e+06 M⁻¹ s⁻¹ in test [5]; 6.3e+06 M⁻¹ s⁻¹ in test [6]; 6.71e+06 M⁻¹ s⁻¹ in test [7]; 1.44e+07 M⁻¹ s⁻¹ in test [8]; 8.8e+06 M⁻¹ s⁻¹ in test [9]. The values for the on-rate (kon) in test [10] and in [11] were 1.3e+07 M⁻¹ s⁻¹ and 1.82e+07 M⁻¹ s⁻¹, respectively. Moreover, the Kd in test [2] and in test [4] was 1400 nM throughout. The koff in [3] was 26.1 s⁻¹; in test [12] it was 15 s⁻¹; in test [13], 45.2 s⁻¹; in test [14], 78 s⁻¹; in test [15], 302 s⁻¹; in test [16], 34 s⁻¹. The koff came out at 123 s⁻¹ in test [17] and 241 s⁻¹ in test [18].
